“And” between values parts separate entries of the source, which are not always exact repeats. Equal entries are not always repeated.
Assays:
[1] = molecular target: MERS-CoV spike (S) protein of strain HCoV-EMC/2012 (clade A) (MERS-CoV strain HCoV-EMC/2012 (clade A)) (UniProt K9N5Q8)
[2] = molecular target: spike (S) protein of bat merbecovirus BtCoV/Ii/GD/2014-422 (BtCoV/Ii/GD/2014-422 (bat MERSr-CoV))
[3] = molecular target: spike (S) protein of pangolin merbecovirus MjHKU4r-CoV (MjHKU4r-CoV (pangolin HKU4r-CoV))
[4] = molecular target: MERS-CoV spike (S) protein of strain NRCE-HKU270 (clade C) (MERS-CoV strain NRCE-HKU270 (clade C))
[5] = molecular target: MERS-CoV spike (S) protein of strain MERS-CoV/KOR/KNIH/002_05_2015 (clade B) (MERS-CoV strain MERS-CoV/KOR/KNIH/002_05_2015 (clade B))

Chain of UniProt K9N5Q8 (K9N5Q8 18-1353): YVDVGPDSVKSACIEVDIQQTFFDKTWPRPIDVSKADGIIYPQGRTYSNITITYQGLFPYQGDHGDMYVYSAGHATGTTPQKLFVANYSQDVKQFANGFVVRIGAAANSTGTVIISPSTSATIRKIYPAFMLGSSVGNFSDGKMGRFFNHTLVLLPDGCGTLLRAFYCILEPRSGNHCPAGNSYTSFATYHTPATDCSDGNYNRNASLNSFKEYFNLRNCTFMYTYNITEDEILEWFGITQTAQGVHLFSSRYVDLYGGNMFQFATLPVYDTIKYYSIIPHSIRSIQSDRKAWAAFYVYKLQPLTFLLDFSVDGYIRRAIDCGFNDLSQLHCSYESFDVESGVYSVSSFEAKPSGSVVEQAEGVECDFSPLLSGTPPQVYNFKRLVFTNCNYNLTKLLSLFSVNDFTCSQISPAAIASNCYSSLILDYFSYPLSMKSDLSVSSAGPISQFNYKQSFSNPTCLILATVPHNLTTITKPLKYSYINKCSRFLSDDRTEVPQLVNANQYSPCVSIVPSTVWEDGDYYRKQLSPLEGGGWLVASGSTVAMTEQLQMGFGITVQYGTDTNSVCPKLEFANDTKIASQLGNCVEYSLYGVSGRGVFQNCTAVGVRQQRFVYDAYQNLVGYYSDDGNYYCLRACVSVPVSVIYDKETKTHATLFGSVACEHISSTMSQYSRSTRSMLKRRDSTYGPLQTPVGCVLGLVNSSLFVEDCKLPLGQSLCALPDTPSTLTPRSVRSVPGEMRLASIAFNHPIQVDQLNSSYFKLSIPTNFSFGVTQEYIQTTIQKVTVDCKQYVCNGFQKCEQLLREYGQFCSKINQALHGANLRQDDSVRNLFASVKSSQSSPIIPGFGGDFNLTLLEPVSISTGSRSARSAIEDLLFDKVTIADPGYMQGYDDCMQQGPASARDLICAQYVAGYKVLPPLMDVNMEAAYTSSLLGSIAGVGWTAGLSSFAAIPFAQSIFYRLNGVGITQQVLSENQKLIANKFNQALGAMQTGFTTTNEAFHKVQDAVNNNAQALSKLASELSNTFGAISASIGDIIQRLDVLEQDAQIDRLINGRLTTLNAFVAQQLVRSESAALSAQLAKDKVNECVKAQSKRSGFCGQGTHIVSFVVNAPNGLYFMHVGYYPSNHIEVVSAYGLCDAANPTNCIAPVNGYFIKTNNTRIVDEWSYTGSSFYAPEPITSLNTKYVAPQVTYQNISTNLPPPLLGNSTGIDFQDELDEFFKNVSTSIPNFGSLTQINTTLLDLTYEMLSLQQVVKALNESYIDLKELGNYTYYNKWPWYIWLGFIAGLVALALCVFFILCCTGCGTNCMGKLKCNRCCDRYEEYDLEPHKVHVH

| Substance | IC50 of neutralisation of S pseudovirus, average [1] | IC50 of neutralisation of S pseudovirus, one of three assays [1] | IC50 of neutralisation of S pseudovirus, average [2] | IC50 of neutralisation of S pseudovirus, average [3] | IC50 of neutralisation of S pseudovirus, one of three assays [3] | IC50 of neutralisation of S pseudovirus, average [4] | IC50 of neutralisation of S pseudovirus, one of three assays [4] | IC50 of neutralisation of S pseudovirus, average [5] | IC50 of neutralisation of S pseudovirus, one of three assays [2] | IC50 of neutralisation of S pseudovirus, one of three assays [5] |
| --- | --- | --- | --- | --- | --- | --- | --- | --- | --- | --- |
| 7D10 (antibody) | 50 µg/mL | 50 µg/mL | 23 µg/mL | > 50 µg/mL | > 50 µg/mL | > 50 µg/mL | > 50 µg/mL | 7.5 µg/mL | – | – |
| CDC2-C2 (antibody) | 0.041 µg/mL | – | > 5 µg/mL | > 5 µg/mL | > 5 µg/mL | 0.12 µg/mL | – | 0.17 µg/mL | > 5 µg/mL | – |
| D12 (antibody) | 0.068 µg/mL | 0.087 µg/mL and 0.077 µg/mL and 0.041 µg/mL | > 5 µg/mL | > 5 µg/mL | > 5 µg/mL | 0.085 µg/mL | 0.095 µg/mL and 0.098 µg/mL and 0.061 µg/mL | 0.19 µg/mL | > 5 µg/mL | 0.25 µg/mL and 0.18 µg/mL and 0.14 µg/mL |
| G4 (antibody) | 8.1 µg/mL | 5.9 µg/mL and 6.4 µg/mL and 12 µg/mL | 11 µg/mL | > 25 µg/mL | > 25 µg/mL | 9.3 µg/mL | 5.2 µg/mL and 8.7 µg/mL and 14 µg/mL | 7.7 µg/mL | – | – |
| JC57-14 (antibody) | 0.037 µg/mL | 0.039 µg/mL and 0.023 µg/mL and 0.047 µg/mL | > 5 µg/mL | > 5 µg/mL | > 5 µg/mL | 0.055 µg/mL | 0.066 µg/mL and 0.059 µg/mL and 0.039 µg/mL | 0.064 µg/mL | > 5 µg/mL | 0.09 µg/mL and 0.043 µg/mL and 0.06 µg/mL |
| MCA1 (antibody) | 0.059 µg/mL | – | > 5 µg/mL | > 5 µg/mL | > 5 µg/mL | 0.067 µg/mL | 0.084 µg/mL and 0.047 µg/mL and 0.071 µg/mL | 0.096 µg/mL | > 5 µg/mL | 0.082 µg/mL and 0.06 µg/mL and 0.15 µg/mL |
| m336 (antibody) | 0.14 µg/mL | – | > 5 µg/mL | > 5 µg/mL | > 5 µg/mL | 0.36 µg/mL | – | 0.85 µg/mL | > 5 µg/mL | – |
